# Paper PMC7642358 (Nature Communications, 2020)
# Molecular target: T1, SARS-CoV-2 spike receptor-binding domain (2019-nCoV RBD-SD1, residues 319–566) (SARS-CoV-2, UniProt P0DTC2)
# Test: not given
# Details: not given
row,Binder,binding result
1,71 (VHH) VHH: QVQLVESGGGSVQAGGSLRLSCAASGNIQHIKYLGWFRQAPGREREGVAALMTRYGQTYYADSVKGRFTVSLDNAKNTVYLQMNSLKPEDTALYYCAAAHYGDNFPLAYQAYLYWGQGTQVTVS,binds
2,83 (VHH) VHH: QVQLVESGGGSVQAGGSLRLSCAASGGITHIVYLGWFRQAPGKEREGVAALMTRWGTTYYADSVKGRFTVSLDNAKNTVYLQMNSLKPEDTALYYCAAAKYGQNFPLSYHAYRYWGQGTQVTVS,binds
3,77 (VHH) VHH: QVQLVESGGGSVQAGGSLRLSCAASGSISSITYLGWFRQAPAKSVRAVAALDTEQGETYYADSVKGRFTVSLDNAKNTVYLQMNSLKPEDTALYYCAAANQHGGYYPLDSAWYTYWGQGTQVTVS,binds
4,75 (VHH) VHH: QVQLVESGGGSVQAGGSLRLSCAASGYINQIYYLGWFRQAPGKEREGVAALNTYQGQTYYADSVKGRFTVSLDNAKNTVYLQMNSLKPEDTALYYCAAARWGRDEPLYHYYYSYWGQGTQVTVS,binds
5,90 (VHH) VHH: QVQLVESGGGSVQAGGSLRLSCAASGAINQIYYLGWFRQAPGKEREGVAALSTKYGETYYADSVKGRFTVSLDNAKNTVYLQMNSLKPEDTALYYCAAARWGRQYPLTFVYYSYWGQGTQVTVS,binds
6,79 (VHH) VHH: QVQLVESGGGSVQAGGSLRLSCAASGYIHTIEYLGWFRQAPGKEREGVAALYTLKGQTYYADSVKGRFTVSLDNAKNTVYLQMNSLKPEDTALYYCAAARWGRDTPLHYQYYSYWGQGTQVTVS,binds
7,94 (VHH) VHH: QVQLVESGGGSVQAGGSLRLSCAASGYITMIEYLGWFRQAPGKEREGVAALNTHTGGTYYADSVKGRFTVSLDNAKNTVYLQMNSLKPEDTALYYCAAARWGRYEPLHYAYYSYWGQGTQVTVS,binds
8,82 (VHH) VHH: QVQLVESGGGSVQAGGSLRLSCAASGTINSIHYLGWFRQAPGKEREGVAALDTYIGYTYYADSVKGRFTVSLDNAKNTVYLQMNSLKPEDTALYYCAAARWGRTSPLHWYYYTYWGQGTQVTVS,binds
9,86 (VHH) VHH: QVQLVESGGGSVQAGGSLRLSCAASGTIASIIYLGWFRQAPGKEREGVAALNTWNGKTYYADSVKGRFTVSLDNAKNTVYLQMNSLKPEDTALYYCAAAYSGMWYPLSNEHYGYWGQGTQVTVS,binds
10,78 (VHH) VHH: QVQLVESGGGSVQAGGSLRLSCAASGYIKSIKYLGWFRQAPGKEREGVAALMTRYGETYYADSVKGRFTVSLDNAKNTVYLQMNSLKPEDTALYYCAAANYGNNWPLTGVNYWYWGQGTQVTVS,binds
11,68 (VHH) VHH: QVQLVESGGGSVQAGGSLRLSCAASGTITNIGYLGWFRQAPGKEREGVAALKTYDGYTYYADSVKGRFTVSLDNAKNTVYLQMNSLKPEDTALYYCAAARHGRDEPLSYMYYSYWGQGTQVTVS,binds
12,73 (VHH) VHH: QVQLVESGGGSVQAGGSLRLSCAASGKIYQIGYLGWFRQAPGKEREGVAALMTTDGYTYYADSVKGRFTVSLDNAKNTVYLQMNSLKPEDTALYYCAAARHGRERPLHYWYYSYWGQGTQVTVS,binds
13,85 (VHH) VHH: QVQLVESGGGSVQAGGSLRLSCAASGSISSITYLGWFRQAPGKEREGVAALVTSRGKTYYADSVKGRFTVSLDNAKNTVYLQMNSLKPEDTALYYCAAASWGYTWPLYTYDYWYWGQGTQVTVS,binds
14,58 (VHH) VHH: QVQLVESGGGLVQAGGSLRLSCAASGFPVDAAWMEWYRQAPGKEREWVAAITSYGYRTYYADSVKGRFTISRDNAKNTVYLQMNSLKPEDTAVYYCNVKDMDRWRTTYDYWGQGTQVTVS,binds
15,61 (VHH) VHH: QVQLVESGGGLVQAGGSLRLSCAASGFPVQHEWMEWYRQAPGKEREWVAAITSYGYRTYYADSVKGRFTISRDNAKNTVYLQMNSLKPEDTAVYYCNVKDTGTYQAWYDYWGQGTQVTVS,binds
16,93 (VHH) VHH: QVQLVESGGGSVQAGGSLRLSCAASGHIAQIEYLGWFRQAPGKEREGVAALSTNQGYTYYADSVKGRFTVSLDNAKNTVYLQMNSLKPEDTALYYCAAARWGRTYPLSYMAYTYWGQGTQVTVS,binds
17,84 (VHH) VHH: QVQLVESGGGSVQAGGSLRLSCAASGYIKHIEYLGWFRQAPGKEREGVAALKTSSGSTYYADSVKGRFTVSLDNAKNTVYLQMNSLKPEDTALYYCAAARYGRSDPLHYHEYSYWGQGTQVTVS,binds
18,62 (VHH) VHH: QVQLVESGGGLVQAGGSLRLSCAASGFPVEQEHMYWYRQASGKEREWVAAIVSEGAYTAYADSVKGRFTISRDNAKNTVYLQMNSLKPEDTAVYYCNVKDWGGYQWYYDYWGQGTQVTVS,binds
19,67 (VHH) VHH: QVQLVESGGGLVQAGGSLRLSCAASGFPVMWAHMAWYRQAPGKEREWVAAIVSAGAYTHYADSVKGRFTISRDNAKNTVYLQMNSLKPEDTAVYYCNVKDWGTYNSYYDYWGQGTQVTVS,binds
20,69 (VHH) VHH: QVQLVESGGGSVQAGGSLRLSCAASGYISEISYLGWFRQAPGKEREGVAALITGWGHTYYADSVKGRFTVSLDNAKNTVYLQMNSLKPEDTALYYCAAAQTGAWYPLETYIYHYWGQGTQVTVS,binds
21,81 (VHH) VHH: QVQLVESGGGSVQAGGSLRLSCAASGYIHRIEYLGWFRQAPGKEREGVAALSTISGNTYYADSVKGRFTVSLDNAKNTVYLQMNSLKPEDTALYYCAAARFGRAYPLHYYQYTYWGQGTQVTVS,binds
22,60 (VHH) VHH: QVQLVESGGGLVQAGGSLRLSCAASGFPVVAWQMTWYRQAPGKEREWVAAIRSFGVSTHYADSVKGRFTISRDNAKNTVYLQMNSLKPEDTAVYYCNVKDWGYEYEGYDYWGQGTQVTVS,binds
23,56 (VHH) VHH: QVQLVESGGGLVQAGGSLRLSCAASGFPVEMWSMEWYRQAPGKEREWVAAIMSFGYQTWYADSVKGRFTISRDNAKNTVYLQMNSLKPEDTAVYYCNVKDAGNSKALYDYWGQGTQVTVS,binds
24,64 (VHH) VHH: QVQLVESGGGLVQAGGSLRLSCAASGFPVYNRYMLWYRQAPGKEREWVAAITSYGYHTTYADSVKGRFTISRDNAKNTVYLQMNSLKPEDTAVYYCNVKDYGQHQQVYDYWGQGTQVTVS,binds
25,97 (VHH) VHH: QVQLVESGGGSVQAGGSLRLSCAASGAISTIEYLGWFRQAPGREREGVAALYTERGYTYYADSVKGRFTVSLDNAKNTVYLQMNSLKPEDTALYYCAAARYGHAQAPLHYFWYGYWGQGTQVTVS,binds
26,57 (VHH) VHH: QVQLVESGGGLVQAGGSLRLSCAASGFPVEHDHMHWYRQAPGKEREWVAAIVSQGAYTVYADSVKGRFTISRDNAKNTVYLQMNSLKPEDTAVYYCNVKDWGRAGARYDYWGQGTQVTVS,binds
27,63 (VHH) VHH: QVQLVESGGGLVQAGGSLRLSCAASGFPVNAEIMFWYRQAPGKEREWVAAIKSAGTTTLYADSVKGRFTISRDNAKNTVYLQMNSLKPEDTAVYYCNVKDYGAQAHYYDYWGQGTQVTVS,binds
28,66 (VHH) VHH: QVQLVESGGGLVQAGGSLRLSCAASGFPEVNTWMEWYRQAPGKEREWVAAITSYGYRTYYADSVKGRFTISRDNAKNTVYLQMNSLKPEDTAVYYCNVKDEGSQSWAYDYWGQGTQVTVS,binds
29,88 (VHH) VHH: QVQLVESGGGLVQAGGSLRLSCAASGFPVWAHHMLWYRQAPGKEREWVAAIASWGANTAYADSVKGRFTISRDNAKNTVYLQMNSLKPEDTAVYYCNVKDSGQYRENYDYWGQGTQVTVS,binds

# Molecular target: T1, SARS-CoV-2 spike receptor-binding …
# Test: BLI
# Details: both partners purified
row,Binder,Kd [nM]
1,"sybody 100 (Sb100) (VHH, source: E. coli MC1061 F-, periplasmic extract, purified (Ni-NTA, desalted in PBS)) VHH: QVQLVESGGGSVQAGGSLRLSCAASGSISSITYLGWFRQAPGKEREGVAALVTSDGRTYYADSVKGRFTVSLDNAKNTVYLQMNSLKPEDTALYYCAAANWGYSWPLYQTEYWYWGQGTQVTVS",38.7
2,"sybody 76 (Sb76) (VHH, source: E. coli MC1061 F-, periplasmic extract, purified (Ni-NTA, desalted in PBS)) VHH: QVQLVESGGGLVQAGGSLRLSCAASSFPVDTYHMAWYRQAPGKEREWVAAIVSWGWRTYYADSVKGRFTISRDNAKNTVYLQMNSLKPEDTAVYYCNVKDIGAQEVHYDYWGQGTQVTVS",58.1
3,"sybody 12 (Sb12) (VHH, source: E. coli MC1061 F-, periplasmic extract, purified (Ni-NTA, desalted in PBS)) VHH: QVQLVESGGGLVQAGGSLRLSCAASGFPVQLYWMEWYRQAPGKEREWVAAITSDGDYTEYADSVKGRFTISRDNAKNTVYLQMNSLKPEDTAVYYCYVKVGEWYYGQGTQVTVS",24.2
4,"sybody 42 (Sb42) (VHH, source: E. coli MC1061 F-, periplasmic extract, purified (Ni-NTA, desalted in PBS)) VHH: QVQLVESGGGLVQAGGSLRLSCAASGFPVYNTWMEWYRQAPGKEREWVAAITSWGFKTYYADSVKGRFTISRDNAKNTVYLQMNSLKPEDTAVYYCNVKDEGYTGYYYDYWGQGTQVTVS",5
